This assay addresses wasl_mouse Wasl (UniProt Q91YD9).

Consider one substance from IntAct's records for PubMed 15585574.

Chain of Src substrate cortactin (Mus musculus), Q60598 W525L (Q60598 whole entry W525L): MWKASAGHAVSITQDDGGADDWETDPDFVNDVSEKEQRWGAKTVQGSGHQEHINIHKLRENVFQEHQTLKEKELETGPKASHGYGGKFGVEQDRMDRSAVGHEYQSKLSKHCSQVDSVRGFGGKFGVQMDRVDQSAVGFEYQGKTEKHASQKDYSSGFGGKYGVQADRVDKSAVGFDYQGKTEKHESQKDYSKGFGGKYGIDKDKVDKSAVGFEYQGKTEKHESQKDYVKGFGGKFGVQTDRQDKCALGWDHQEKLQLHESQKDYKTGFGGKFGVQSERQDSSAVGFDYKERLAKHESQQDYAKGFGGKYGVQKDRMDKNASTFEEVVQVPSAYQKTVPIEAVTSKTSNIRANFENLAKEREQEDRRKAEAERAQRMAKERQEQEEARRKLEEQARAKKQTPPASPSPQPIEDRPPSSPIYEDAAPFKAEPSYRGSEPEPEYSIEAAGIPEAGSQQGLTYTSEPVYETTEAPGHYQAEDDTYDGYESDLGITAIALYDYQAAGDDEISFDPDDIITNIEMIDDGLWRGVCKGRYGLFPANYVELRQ
Chain of wasl_mouse Wasl (Q91YD9 whole entry): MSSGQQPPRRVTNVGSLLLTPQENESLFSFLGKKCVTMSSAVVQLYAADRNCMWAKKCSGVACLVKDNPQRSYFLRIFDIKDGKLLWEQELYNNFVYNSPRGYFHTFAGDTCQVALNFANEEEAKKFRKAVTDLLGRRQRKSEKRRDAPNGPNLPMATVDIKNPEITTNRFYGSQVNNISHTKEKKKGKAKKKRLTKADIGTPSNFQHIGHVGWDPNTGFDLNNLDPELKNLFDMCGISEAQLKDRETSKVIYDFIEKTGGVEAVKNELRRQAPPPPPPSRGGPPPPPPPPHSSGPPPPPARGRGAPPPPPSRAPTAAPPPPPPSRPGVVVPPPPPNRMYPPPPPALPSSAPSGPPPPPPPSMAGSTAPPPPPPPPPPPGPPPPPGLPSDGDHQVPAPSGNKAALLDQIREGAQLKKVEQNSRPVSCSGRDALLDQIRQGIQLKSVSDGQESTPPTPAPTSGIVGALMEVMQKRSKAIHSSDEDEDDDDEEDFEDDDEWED

As for “Src substrate cortactin (Mus musculus), Q60598 W525L”, the “effect of a mutation on the interaction” value is given as “disrupting interaction”.
